Measurements reported in patent US20210024625A1 (published 2021).

How the values were obtained:
Assay in all cases: cell-based or functional assay
[1] = biological target: PfRH5 from Plasmodium falciparum strain Cam3.II (Plasmodium falciparum)
[2] = biological target: T1, PfRH5 from Plasmodium falciparum strain 7G8 (Plasmodium falciparum)
[3] = biological target: T2, PfRH5 from Plasmodium falciparum strain Dd2 (Plasmodium falciparum)
[4] = biological target: PfRH5 from Plasmodium falciparum strain D10 (Plasmodium falciparum)
[5] = biological target: PfRH5 from Plasmodium falciparum strain HB3 (Plasmodium falciparum)
[6] = biological target: T3, PfRH5 from Plasmodium falciparum strain FCR-1/FVO (Plasmodium falciparum)
[7] = biological target: T4, PfRH5 from Plasmodium falciparum strain 3D7 (Plasmodium falciparum, UniProt Q8IFM5 25-526)
T4 sequence: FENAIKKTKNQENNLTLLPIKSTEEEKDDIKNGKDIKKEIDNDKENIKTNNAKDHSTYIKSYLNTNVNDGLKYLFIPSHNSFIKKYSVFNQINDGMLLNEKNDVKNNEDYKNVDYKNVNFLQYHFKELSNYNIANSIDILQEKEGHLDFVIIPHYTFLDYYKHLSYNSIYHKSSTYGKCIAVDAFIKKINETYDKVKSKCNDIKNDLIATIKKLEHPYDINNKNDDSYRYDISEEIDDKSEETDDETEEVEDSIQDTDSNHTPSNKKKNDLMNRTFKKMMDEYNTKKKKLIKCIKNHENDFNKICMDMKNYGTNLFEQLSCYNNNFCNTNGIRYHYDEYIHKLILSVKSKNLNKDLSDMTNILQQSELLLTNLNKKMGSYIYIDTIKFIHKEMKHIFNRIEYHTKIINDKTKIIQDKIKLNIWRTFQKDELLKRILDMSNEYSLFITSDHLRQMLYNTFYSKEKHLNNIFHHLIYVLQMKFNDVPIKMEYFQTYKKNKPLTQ

[8] = biological target: PfRH5 from Plasmodium falciparum strain W2-mef (Plasmodium falciparum)
[9] = biological target: PfRH5 from Plasmodium falciparum strain RF7 (Plasmodium falciparum)
[10] = biological target: T3, PfRH5 from Plasmodium falciparum strain …; remark: listed apart in the source
[11] = biological target: T1, PfRH5 from Plasmodium falciparum strain …; remark: listed apart in the source
[12] = biological target: T4, PfRH5 from Plasmodium falciparum strain …; remark: listed apart in the source
[13] = biological target: T2, PfRH5 from Plasmodium falciparum strain …; remark: listed apart in the source

B1: H1H29147P2 (antibody, V domains shown)
VH: QVQLVQSGAEVKNPGSSVKVSCKASGGTFSSYTINWVRQAPGQGLEWMGGIIPLYGTANYAQKFQARVTISTDESTNTAYMELSNLRFEDTAVYFCASTLELRAFDAFDIWGQGTMVTVSS
VL: not shown
Max growth inhibition (%) [1]: 51.9%
Max growth inhibition (%) [2]: 65.2%
Max growth inhibition (%) [3]: 65.3%
Max growth inhibition (%) [4]: 81.4%
Max growth inhibition (%) [5]: 64.8%
Max growth inhibition (%) [6]: 70.3%
Max growth inhibition (%) [7]: 60.3%
Max growth inhibition (%) [8]: 64.7%
Max growth inhibition (%) [9]: 31.4%
Percent Maximum Growth Inhibition, mAb (6.67 µM) + AHIS (10%) [10]: 86.2%
Percent Maximum Growth Inhibition, mAb (6.67 µM) + ANS (10%) [10]: 80.3%
Percent Maximum Growth Inhibition, mAb (6.67 µM) + HHIS (10%) [10]: 83.4%
Percent Maximum Growth Inhibition, mAb (6.67 µM) + HNS (10%) [10]: 85.6%
Percent Maximum Growth Inhibition, mAb (6.67 µM) + No serum [10]: 84.1%
Max growth inhibition (%), Chloroquine Phosphate N/A [11]: 47.3%
Max growth inhibition (%), Chloroquine Phosphate N/A [12]: 34.9%

B2: H1H29089P (antibody, V domains shown)
VH: EVQLVQSGAEVKKPGESLKISCKGSGYSFTSYWIVWVRQMPGKGLEWMGIIYPGDSDTRYSPSFQGQVTISADKSISTAYLQWSSLKASDTAMYYCARQDITGTTGFDYWGQGTLVTVSS
VL: DIQMTQSPSSLSASVGDRVTITCRASQSIRNYLNWYQQKPGKAPKLLIYAASSLQSGVPSRFSGSGSGTDFTLTISSLQPEDFATYFCQQSYSTPFTFGPGTKVDIKR
Max growth inhibition (%) [1]: 56.2%
Max growth inhibition (%) [2]: 70.1%
Max growth inhibition (%) [3]: 71.3%
Max growth inhibition (%) [4]: 82.3%
Max growth inhibition (%) [5]: 59.1%
Max growth inhibition (%) [6]: 66%
Max growth inhibition (%) [7]: 67.6%
Max growth inhibition (%) [8]: 66.4%
Max growth inhibition (%) [9]: 28.9%
Percent Maximum Growth Inhibition, mAb (6.67 µM) + AHIS (10%) [10]: 84.3%
Percent Maximum Growth Inhibition, mAb (6.67 µM) + ANS (10%) [10]: 75.7%
Percent Maximum Growth Inhibition, mAb (6.67 µM) + HHIS (10%) [10]: 85.2%
Percent Maximum Growth Inhibition, mAb (6.67 µM) + HNS (10%) [10]: 85%
Percent Maximum Growth Inhibition, mAb (6.67 µM) + No serum [10]: 85.3%
Max growth inhibition (%), Chloroquine Phosphate N/A [11]: 51.1%
Max growth inhibition (%), Chloroquine Phosphate N/A [12]: 61.1%

B3: H1H29100P (antibody, V domains shown)
VH: QLQLQESGPGLVKPSETLSLTCTVSGGSISSSSYYWGWIRQPPGKGLEWIGIIYYSGSTYYNPSLKSRVTISVDTSKNQFSLKLSSVTAADTAVYYCARQDREALFDYWGQGTLVTVSS
VL: EIVLTQSPDFQSVTPKEKVTITCRASQRIGSSLHWYQQKPDQSPKLLIKYASQSFSGVPSRFSGSGSGTDFTLTINSLEAEDAATYYCHQSSTLPTFGQGTRLEIKR
Max growth inhibition (%) [1]: 52.4%
Max growth inhibition (%) [2]: 66.4%
Max growth inhibition (%) [3]: 64.6%
Max growth inhibition (%) [4]: 81.7%
Max growth inhibition (%) [5]: 62.6%
Max growth inhibition (%) [6]: 66.9%
Max growth inhibition (%) [8]: 67.3%
Max growth inhibition (%) [9]: 17%
Percent Maximum Growth Inhibition, mAb (6.67 µM) + AHIS (10%) [10]: 82.5%
Percent Maximum Growth Inhibition, mAb (6.67 µM) + ANS (10%) [10]: 73.2%
Percent Maximum Growth Inhibition, mAb (6.67 µM) + HHIS (10%) [10]: 81.9%
Percent Maximum Growth Inhibition, mAb (6.67 µM) + HNS (10%) [10]: 82.4%
Percent Maximum Growth Inhibition, mAb (6.67 µM) + No serum [10]: 83.9%
Max growth inhibition (%), Chloroquine Phosphate N/A [11]: 48.9%
Max growth inhibition (%), Chloroquine Phosphate N/A [12]: 58%
Maximum growth inhibition (%) [13]: 65.7%
